Data as given in publication PMC12316933.

Biological target: KS17 N2 NA (recombinant N2 neuraminidase head of H3N2 A/Kansas/14/2017) (Influenza A virus H3N2 A/Kansas/14/2017)
Assay: cryo-EM structure

Substance “KS17 N2 NA (recombinant N2 neuraminidase head of H3N2 A/Kansas/14/2017) (enzyme)” has a stoichiometry N of 4.
